± gives the standard deviation of the averaged measurements.
tested on: ATP; experiment: switch fluorescence ratio, 500 uM ATP over buffer (Cy3 cluster intensity, sum of 5 cycles each) (fold (ratio)); higher = stronger signal-on switching upon ATP binding; sequences stand for … in TCGTCGGCAGCGTCAGATGTGTATAAGAGACAGTTTTTTTTTTTTTTTTTTTTTTTTT…TC; details: aptamer strand: ATP DNA aptamer (quencher-CACCTGGGGGAGTATTGCGGAGGAAGG + anchor), 100 nM annealed; ATP concentration: 500 uM
In short: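 Clusters with intensities outside 100-1000 RFU were excluded. The remaining Cy3-labelled switching-strand clusters on a modified Illumina MiSeq flow-cell had been annealed to 100 nM quencher-labelled ATP aptamer and imaged in selection buffer, then after 15 min with 500 uM ATP at 22 °C, for five cycles separated by NaOH stripping and re-annealing. The fluorescence ratio, averaged per switch-domain sequence, is each cluster's summed target-cycle Cy3 intensity over its summed buffer-cycle Cy3 intensity.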
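Also: ATP exposure 15 min at 22 °C before imaging.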

Sequence | switch fluorescence ratio
TCATGACGGT | 1.011 ± 0.0028
TTTGTGTTCT | 0.9786 ± 0.0048
TGCTTCAGGG | 1.03 ± 0.014
AATAGGCTGG | 1.03 ± 0.013
GCTTCTGCCT | 1 ± 0.013
GAAACATTGG | 1.0357 ± 0.00021
CGACCAGATA | 1.078 ± 0.0037
AGGTTCAAAT | 0.996 ± 0.044
TGAAGGGTTT | 0.996 ± 0.052
CCTCGAGACT | 1.43 ± 0.032
CTGAGGGGAT | 1.1 ± 0.047
TTGTTACGGA | 1.01 ± 0.017
CATAGGGTGA | 1.01 ± 0.026
GATCGGAATA | 1.87 ± 0.091
CGATTCTTTT | 0.979 ± 0.01
TTTCCGGATT | 1.02 ± 0.059
CAGATTTAAG | 0.994 ± 0.017
TGAGGAACCT | 1.77 ± 0.098
TATACCATTT | 1.01 ± 0.015
GTAACGGGGA | 0.995 ± 0.072
GCTTAGGGGG | 1.031 ± 0.0069
CATGCTTTTG | 1.013 ± 0.0021
CTGAGGCTGG | 0.9933 ± 0.0021
AGGATATCAG | 0.991 ± 0.027
ATTAGTGGCA | 0.982 ± 0.013

Sequence | switch fluorescence ratio
CGGTGTGTCC | 0.97164 ± 0.00017
GCGAACGGGG | 1.01 ± 0.049
GAGAAAGGTT | 1.09 ± 0.2
TGCAACGTCG | 0.998 ± 0.019
GCCTTTTGTT | 0.995 ± 0.027
TAAAGGTTGG | 0.962 ± 0.025
TTTTCGTTTC | 1.01 ± 0.033
GGGCATGGTG | 1.05 ± 0.025
TAATTGTTTT | 1 ± 0.024
AAAGGCGAGG | 0.957 ± 0.015
TTTTGATGTA | 0.977 ± 0.019
GAAGGCCCGG | 0.99 ± 0.062
CTACACGAGA | 1.09 ± 0.019
TATACTGTTG | 0.976 ± 0.021
AGCGGGGGTT | 0.9996 ± 0.0055
GGCAGGGATT | 1.01 ± 0.014
TTGTTTTCAT | 1.04 ± 0.018
AACGATAAAT | 1.03 ± 0.014
CATGATGAGC | 0.9668 ± 0.0079
GATCCAGGAG | 1.11 ± 0.047
ATTAAGACAG | 0.973 ± 0.032
AGGTTTTGTT | 0.964 ± 0.017
CAGAATTTAG | 0.996 ± 0.024
TGTTGTGTTT | 0.989 ± 0.033
CTAGAGGGGA | 1.14 ± 0.2

Sequence | switch fluorescence ratio
GGAAGGAGGA | 0.973 ± 0.015
GATGGTGGGG | 0.977 ± 0.035
TTCGGGCATT | 0.989 ± 0.046
TTATCCAAAG | 0.966 ± 0.016
TACGGGAATG | 1.02 ± 0.036
CGTACAAGTC | 0.963 ± 0.058
TTTATAGCGA | 1.63 ± 0.54
TGTTTTGTTT | 0.995 ± 0.013
AGGGAACTGT | 0.97 ± 0.056
TTTTGGCTAA | 1.01 ± 0.022
TACGATATTT | 1.099 ± 0.0068
TGTGTTTTAG | 0.976 ± 0.015
CAAAGTTGCG | 0.984 ± 0.017
AGTCTTAGGG | 0.972 ± 0.023
TCGGGTCGCG | 0.9948 ± 0.00097
GATTTGCTAG | 0.997 ± 0.023
GTGGGAATTA | 0.996 ± 0.025
GTTTGCTTTT | 1 ± 0.046
TTGGGTGTTT | 1.06 ± 0.035
AGGGGGTAGC | 0.992 ± 0.047
GGGGAGACGA | 1.04 ± 0.022
TGGCGCTTGT | 0.978 ± 0.028
TAGCGGAAGT | 0.999 ± 0.017
TGGGACCGGC | 0.98 ± 0.021
GGCCGCGGAC | 1.01 ± 0.035

Sequence | switch fluorescence ratio
AATAGTTGGA | 0.9846 ± 0.0064
AATCAATTTT | 1.007 ± 0.0054
AGGCTTATCG | 1.02 ± 0.024
TTTTCAAATC | 1.016 ± 0.0075
CAGTTCGGCC | 1.01 ± 0.024
AGCTGATACG | 1.31 ± 0.0078
TCTAGGAGGT | 0.987 ± 0.028
GGAAAATAAT | 1.01 ± 0.035
TCAAGTTATT | 0.973 ± 0.0099
GGCATTTGTG | 1 ± 0.025
GCTTCCTGCC | 1.4 ± 0.027
CTGGGGGGGG | 1 ± 0.038
CTTGGTTGCT | 0.997 ± 0.032
TCGCGAGAGC | 1.004 ± 0.0057
CTTGCGGCCT | 1.11 ± 0.15
CAGGCGTCGT | 1.035 ± 0.0023
CCTTGAATCG | 0.978 ± 0.023
CGGCTGTCAC | 1.03 ± 0.025
TGGTCATTGC | 1.064 ± 0.0086
ATTGTCGTTC | 1.027 ± 0.0098
AATTCACTAA | 1.028 ± 0.0063
TCTTATAAGC | 0.984 ± 0.028
GGGGCCAAAA | 0.947 ± 0.11
GGGGCTATCC | 1.01 ± 0.036
TCCGCAGAG | 6.2 ± 0.49

— the supplement of paper PMC10126150
